Source: patent EP3741773A1

Molecular target: cetuximab
Assay: SPR, immobilized cetuximab IgG (Figure 12)

Chain of avidin saturated with biotinylated meditope (P02701 25-152): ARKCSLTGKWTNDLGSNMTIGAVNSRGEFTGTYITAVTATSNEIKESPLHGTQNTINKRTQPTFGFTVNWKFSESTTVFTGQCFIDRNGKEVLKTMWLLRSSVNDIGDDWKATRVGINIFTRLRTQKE

**Q.** With “avidin saturated with biotinylated meditope (from UniProt P02701 25-152)” as the substance, how does the fold reduction of the off-rate against the monovalent meditope read?
**A.** The fold reduction of the off-rate against the monovalent meditope was over 36 fold.
